# In patent publication US20250270304A1 (PHENOMIC AI, published 2025):
# T1: Inhibin A (Homo sapiens (Human), UniProt P05111 233-366; P08476 311-426)
# T1 sequence 1: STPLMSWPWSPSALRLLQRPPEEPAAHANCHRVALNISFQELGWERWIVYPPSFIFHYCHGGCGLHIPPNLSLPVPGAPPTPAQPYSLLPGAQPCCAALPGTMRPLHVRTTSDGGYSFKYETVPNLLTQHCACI
# T1 sequence 2: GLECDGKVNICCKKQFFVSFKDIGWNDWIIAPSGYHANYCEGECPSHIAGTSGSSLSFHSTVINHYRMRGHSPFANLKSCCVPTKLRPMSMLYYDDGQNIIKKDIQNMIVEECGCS
# T2: Latent Activin A (human, UniProt P08476 21-426, limits assumed)
# T2 construct: also called INHBA latent
# T2 sequence: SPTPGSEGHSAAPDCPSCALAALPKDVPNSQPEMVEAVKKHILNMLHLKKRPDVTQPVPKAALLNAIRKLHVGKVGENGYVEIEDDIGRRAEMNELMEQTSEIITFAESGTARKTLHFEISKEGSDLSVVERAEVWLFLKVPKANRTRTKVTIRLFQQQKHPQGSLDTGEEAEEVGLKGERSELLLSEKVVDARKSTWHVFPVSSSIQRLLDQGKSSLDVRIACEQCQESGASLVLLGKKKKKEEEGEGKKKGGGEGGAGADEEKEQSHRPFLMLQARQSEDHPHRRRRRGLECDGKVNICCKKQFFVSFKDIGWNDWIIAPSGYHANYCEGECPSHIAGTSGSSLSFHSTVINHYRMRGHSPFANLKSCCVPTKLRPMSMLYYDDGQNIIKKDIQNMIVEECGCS
# T3: Mature Activin A (human, UniProt P08476 311-426)
# T3 construct: also called active Activin A; INHBA mature
# T3 sequence: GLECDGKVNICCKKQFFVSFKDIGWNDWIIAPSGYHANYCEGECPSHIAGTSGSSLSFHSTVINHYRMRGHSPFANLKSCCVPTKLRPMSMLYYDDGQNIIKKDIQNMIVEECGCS
# T4: Activin B (Homo sapiens (Human), UniProt P09529 293-407)
# T4 construct: also called Mature Activin B; mature Activin B
# T4 sequence: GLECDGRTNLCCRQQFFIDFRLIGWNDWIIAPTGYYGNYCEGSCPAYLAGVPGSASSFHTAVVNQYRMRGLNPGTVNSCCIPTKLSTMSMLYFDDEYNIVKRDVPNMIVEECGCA
# Tests used:
# Test in all cases: ELISA, coated antigen, OD450
# [1] = biological target: T1, Inhibin A
# [2] = biological target: T2, Latent Activin A
# Procedure: (§1) Antibodies were re-expressed in 40 mL cultures of Expi293 cells and purified using protein G magnetic sepharose beads (Cytiva, Marlborough, MA) to provide larger quantities for secondary screening. Secondary screening included dose responses in both functional assays described above (SMAD nuclear localization and fibroblast activations assays) as well as in binding assays to the same antigens listed in Table 3. Plates were coated with 25 μL of 3 μg/mL antigen in 384-well Maxisorp plates overnight at 4° C. with agitation. The next day, the samples in the plates were blocked with 70 μL blocking buffer (PBS+1% BSA+0.1% Tween-20) for 2 hours at room temperature. Plates were then washed three times with 100 μL of wash buffer (PBS+0.1% Tween-20). Primary antibodies in Expi293 expression medium were diluted 1:3 in blocking buffer, 25 μL added per well, and the plates were incubated for an hour at room temperature with agitation. Plates were then washed three times and 25 μL of secondary antibody (goat anti-Human IgG, HRP conjugated; Jackson Immunoresearch) diluted 1:5000 in blocking buffer was added for 30 minutes at room temperature. The wells in the plates were washed six times with wash buffer and TMB substrate was added followed by 1 M H3PO4.
# [3] = biological target: T1, Inhibin A; remark: listed apart in the source
# Procedure: as §1
# [4] = biological target: T3, Mature Activin A
# Procedure: as §1
# [5] = biological target: T4, Activin B
# Procedure: as §1
Binder,binding result [1],fold-change of OD 450 over negative control (BSA) [2] [fold],fold-change of OD 450 over negative control (BSA) [3] [fold],fold-change of OD 450 over negative control (BSA) [4] [fold],fold-change of OD 450 over negative control (BSA) [5] [fold]
"AB346 (antibody, IgG1, V domains shown) VH: QVQLQESGPGLVKPSQTLSLTCTVSGFPLSTSRMGVNWIRQPPGKGLEWIGYINPSGATDYNPSLKSRVTMSVDTSKNQFSLKVNSVTAADTAVYYCARAGYPDVWGKGTTVTVSS VL: EIVMTQSPATLSLSPGERATLSCRASRSVSSDLAWYQQKPGQAPRLLIYDVSTRATGIPARFSGSGSGTDFTLTISSLEPEDFAVYYCQQYGSSLPPTFGGGTKVEIK",–,13.8,0.58,14,2.46
"AB435 (antibody, IgG1, V domains shown) VH: QVQLQESGPGLVKPSQTLSLTCTVSGYSLTDARIGVNWIRQPPGKGLEWIGYINPSGRTDYNPSLKSRVTMSVDTSKNQFSLKVNSVTAADTAVYYCARAGYPDVWGKGTTVTVSS VL: EIVMTQSPATLSLSPGERATLSCRASQSIGTKLAWYQQKPGQAPRLLIYDASSRVPGIPARFSGSGSGTDFTLTISSLEPEDFAVYYCQQYGSSPPVYSFGGGTKVEIK",–,6.66,0.74,8.09,0.84
"AB433 (antibody, IgG1, V domains shown) VH: QVQLQESGPGLVKPSQTLSLTCTVSGFPLSTSRMGVNWIRQPPGKGLEWIGYINPSGATDYNPSLKSRVTMSVDTSKNQFSLKVNSVTAADTAVYYCARAGYPDVWGKGTTVTVSS VL: EIVMTQSPATLSLSPGERATLSCRASQSVRTSLAWYQQKPGQAPRLLIYDTSIRAAGIPARFSGSGSGTDFTLTISSLEPEDFAVYYCQQYGNWHFGGGTKVEIK",–,10.5,0.72,9.41,2.5
"AB357 (antibody, IgG1, V domains shown) VH: EVQLVQSGAEVKKPGASVKVSCKASGYTFPSHYISWVRQAPGQGLEWMGGMNPITGHTIYAQKLQGRGTMTTDPSTSTAYMELRSLRSDDTAVYYCARDMRYDILPGRSYYYGMDVWGQGTTVTVSS VL: ESALTQPASVSGSPGQSITISCTGTDIRGMSVSWYQQHPGKAPKLMIYEVNQRPSGVSNRFSGSKSGNTASLTISGLQAEDEADYYCAAWDASVAGYVFGGGTKLTVL",–,6.59,0.77,6.99,2.44
"AB338 (antibody, IgG1, V domains shown) VH: EVQLVESGGGLVQPGGSLRLSCAASGFTASRNYMSWVRQAPGKGLELVASISGSGDYTYYPDSVKGRFTISRDNAKNSLYLQMNSLRAEDTAVYYCARSPRGPRLLGYYYGMDVWGQGTTVTVSS VL: DIVMTQSPLSLPVTPGEPASISCRSSQSLLHSNEKNYLHWYLQKPGQSPQLLIYDASKRASGVPDRFSGSGSGTDFTLKISRVEAEDVGVYYCVQDLHTPFTFGGGTKVEIK",–,1.44,0.9,1.94,0.68
"AB372 (antibody, IgG1, V domains shown) VH: QVTLRESGPALVKPTQTLTLTCTVSGFSLSTSGATVNWIRQPPGKALEWIGYITSSGRTVYNSALKSRLTISKDTSKNQVVLTMTNMDPVDTATYYCTTTKIVGATLRDYWGQGTLVTVSS VL: DIVMTQSPDSLAVSLGERATINCKSSQSVLDTSTNRNYLAWYQQKPGQPPKLLIYGASIRAGGVPDRFSGSGSGTDFTLTISSLQAEDVAVYYCQQSYSHPPTFGGGTKVEIK",–,5.64,0.43,7.16,0.43
"AB363 (antibody, IgG1, V domains shown) VH: QVTLRESGPALVKPTQTLTLTCTVSGFSLSTSGATVNWIRQPPGKALEWIGYITSSGRTVYNSALKSRLTISKDTSKNQVVLTMTNMDPVDTATYYCTTTKIVGATLRDYWGQGTLVTVSS VL: DIQMTQSPSSVSASVGDRVTITCRASQGISNDLAWYQQKPGKAPKLLIYDVSNRASGVPSRFSGSGSGTDFTLTISSLQPEDFANYYCQQYDNPPSFGGGTKVEIK",–,4.82,0.53,7.63,0.63

# Other lines, results leading:
binding result [1],fold-change of OD 450 over negative control (BSA) [2] [fold],fold-change of OD 450 over negative control (BSA) [3] [fold],fold-change of OD 450 over negative control (BSA) [4] [fold],fold-change of OD 450 over negative control (BSA) [5] [fold],Binder
no binding (tested: 1.40-fold over BSA),10.4,0.74,8.86,1.72,"AB432 (antibody, IgG1, V domains shown) VH: QVQLQESGPGLVKPSQTLSLTCTVSGVSLSNVRMGVNWIRQPPGKGLEWIGYVNPSGSTDYNPSLKSRVTMSVDTSKNQFSLKVNSVTAADTAVYYCARAGYPDVWGKGTLVTVSS VL: EIVMTQSPATLSLSPGERATLSCRASQSISSSQLAWYQQKPGQAPRLLIYGASTRATGIPARFSGSGSGTDFTLTISSLEPEDFAVYYCQQYNDRPRTFGGGTKVEIK"
–,5.82,0.46,6.84,0.87,"AB465 (antibody, IgG1, V domains shown) VH: QVQLQESGPGLVKPSQTLSLTCTVSGASVSNARTGVNWIRQPPGKGLEWIGYINPSGRIDYNPSLKSRVTMSVDTSKNQFSLKVNSVTAADTAVYYCARAGYPDVWGKGTTVTVSS VL: EIVMTQSPATLSLSPGERATLSCRASQTVSSHLAWYQQKPGQAPRLLIYDVSHRASGIPARFSGSGSGTDFTLTISSLEPEDFAVYYCQQYFTLPTFGGGTKVEIK"
no binding (tested: 1.40-fold over BSA),15.2,0.61,16.2,2.03,"AB352 (antibody, IgG1, V domains shown) VH: QVQLQESGPGLVKPSQTLSLTCTVSGFPLSTSRMGVNWIRQPPGKGLEWIGYINPSGATDYNPSLKSRVTMSVDTSKNQFSLKVNSVTAADTAVYYCARAGYPDVWGKGTTVTVSS VL: EIVMTQSPATLSLSPGERATLSCRASQSVSTHLAWYQQKPGQAPRLLIYDATNRATGIPARFSGSGSGTDFTLTISSLEPEDFAVYYCLQYTNYPWTFGGGTKVEIK"
–,4.95,0.65,6.63,0.76,"AB449 (antibody, IgG1, V domains shown) VH: QVQLQESGPGLVKPSQTLSLTCTVSGLSLSNAKMGVNWIRQPPGKGLEWIGYVSTTGTTDYNPSLKSRVTMSVDTSKNQFSLKVNSVTAADTAVYYCARAGYPDVWGKGTTVTVSS VL: DIQMTQSPSSVSASVGDRVTITCRASQGISRDLAWYQQKPGKAPKLLIYAASTLVSGVPSRFSGSGSGTDFTLTISSLQPEDFANYYCQQYVSAPPYTFGGGTKVEIK"
